Substitutions are numbered along the chain they refer to.

These results are taken from patent publication US20230295310A1 (ABCELLERA BIOLOGICS, published 2023).

Test [1] concerns the target T1, human CD3 expressed on cells (Jurkat cells; human primary T cells) (human, UniProt P07766 23-207; P04234 22-171; P09693 23-182).
T1 construct: whole, on cells
Nature of the test: flow cytometry, 25 nM, human primary T cells. Here is the method:
(§1) Purified antibodies were confirmed to bind CD3 expressed on cells using the CytoFLEX S or LX flow cytometers (Beckman Coulter). Antibodies were diluted to 25 nM in FACS buffer (PBS+2% FBS) and were incubated with CD3-expressing cells for 30 minutes at 4° C. […] The median fluorescence intensity of the binding signal for each antibody was normalized to the isotype control to obtain a fold over isotype value. An antibody with a fold over isotype (FOI) of ≥10 was considered to be positive for binding.
Background: In flow cytometry, cells or beads pass a laser one at a time.

The target in test [2] is T1, human CD3 expressed on cells (Jurkat …). Nature of the test: flow cytometry, 25 nM, Jurkat cells. Here is the method: as §1
In test [3] the target is T2, cynomolgus monkey CD3 expressed on cyno primary T cells (cynomolgus monkey, UniProt Q95LI5 22-198; Q95LI8 22-171; Q95LI7 23-181).
T2 construct: whole, on cells; CD3 complex on purified cynomolgus monkey CD3 pan T cells; also called cyno CD3
T2 sequence (Q95LI5 22-198, chain 1 of 3): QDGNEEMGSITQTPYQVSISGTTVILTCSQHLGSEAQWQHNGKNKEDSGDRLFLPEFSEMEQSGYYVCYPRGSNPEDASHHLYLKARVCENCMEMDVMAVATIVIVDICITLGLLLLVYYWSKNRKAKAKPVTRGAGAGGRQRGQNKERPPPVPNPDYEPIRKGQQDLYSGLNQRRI
T2 sequence (Q95LI8 22-171, chain 2 of 3): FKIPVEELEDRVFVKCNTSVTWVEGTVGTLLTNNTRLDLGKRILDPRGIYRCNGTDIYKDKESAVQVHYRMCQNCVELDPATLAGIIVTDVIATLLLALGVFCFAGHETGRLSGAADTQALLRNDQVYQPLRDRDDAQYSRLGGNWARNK
T2 sequence (Q95LI7 23-181, chain 3 of 3): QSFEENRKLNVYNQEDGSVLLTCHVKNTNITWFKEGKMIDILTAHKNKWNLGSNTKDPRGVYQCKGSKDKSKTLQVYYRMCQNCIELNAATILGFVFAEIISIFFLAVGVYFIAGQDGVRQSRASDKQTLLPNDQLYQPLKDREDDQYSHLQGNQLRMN
The test can be described thus: flow cytometry, cyno primary T cells. The method in brief: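 Antibodies at 25 nM in PBS + 2% FBS were incubated with CD3-expressing cells for 30 minutes at 4° C and analysed by flow cytometry. Median fluorescence intensity was normalized to isotype control to give fold over isotype (FOI); FOI ≥10 counted as binding.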

T1 sequence (P07766 23-207, chain 1 of 3): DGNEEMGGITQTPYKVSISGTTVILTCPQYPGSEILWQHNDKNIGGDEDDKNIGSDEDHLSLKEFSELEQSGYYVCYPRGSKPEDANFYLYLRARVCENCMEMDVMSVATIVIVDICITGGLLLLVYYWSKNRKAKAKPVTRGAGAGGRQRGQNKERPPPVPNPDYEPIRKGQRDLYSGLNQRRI
T1 sequence (P04234 22-171, chain 2 of 3): as the sequence (Q95LI8 22-171, chain 2 of 3) above, with V5I, K15N, V20I, T32S, N33D, N34I, A64T, N74S, L83V, R141H counted along it
T1 sequence (P09693 23-182, chain 3 of 3): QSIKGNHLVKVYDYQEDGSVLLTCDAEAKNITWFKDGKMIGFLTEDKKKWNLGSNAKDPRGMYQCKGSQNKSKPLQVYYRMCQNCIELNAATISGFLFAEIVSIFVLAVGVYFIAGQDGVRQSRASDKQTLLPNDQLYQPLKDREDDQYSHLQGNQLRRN

B1: mAb 212 (antibody, V domains shown)
VH: EVQLLESGGGLVQPGGSLRLSCAASGFTFSNYAMNWVRQAPGKGLEWVSAISGSRSNTYYADSVKGRFTISRDNSKNTLYLQMNSLRAEDTGVYYCAKGAYSKYPYYYYMDVWGKGTTVTVSS
VL: EIVMTQSPATLSLSPGERATLSCRASQSVSSSYLSWYQQKPGQAPRLLIYGASTRAIGIPARFSGSGSGTDFTLTISSLQAEDFAVYYCQQDDNLPWTFGQGTKVEIK
notes: VH/VL only
For B1, the “Binding (FOI)” value in test [1] came to 160 FOI; in test [2], 150 FOI. The binding result in test [3] was “no binding (tested: FOI <10 (FOI >=10 = positive); 25 nM)”.

B2: mAb 214 (antibody, V domains shown)
VH: B1 VH with G92A
VL: B1 VL
notes: VH/VL only
Consider B2, for which the “Binding (FOI)” value is 162 FOI in test [1] and 150 FOI in test [2]. Besides, the binding result in test [3] is on record as “no binding (tested: FOI <10 (FOI >=10 = positive); 25 nM)”.

B3: mAb 199 (antibody, V domains shown)
VH: QVQLVESGGGVVQPGRSLRLSCAASGFTFSGYGMHWVRQAPGKGLEWVAIIYYNGKKEYYADSVKGRFTIFRDNSKNTLYLHMNSLRAEDTAVYYCTRGEGYNWFDPWGQGTLVTVSS
VL: EIVMTQSPATLSVSPGERATLSCRASQSVSRNLAWYQQKPGQAPRLLIYGASTRATGIPARFSGSGSGTEFTLTISSLQSEDFAVYYCQQYNNWPLTFGGGTKVEIK
notes: VH/VL only
As to B3, the “Binding (FOI)” value came out at 225 FOI in test [1] and 172 FOI in test [2]. Further, in test [3], the binding result is reported as “no binding (tested: FOI <10 (FOI >=10 = positive); 25 nM)”.

B4: mAb 195 (antibody, V domains shown)
VH: QEQLVESGGGVVQSGRSLRLSCVASGFKFSGYGMHWVRQAPGKGLEWVAIIYYDGKNKYYADSVKGRFTISRDNSKNTLYLQMNSLRAEDTAVYYCTRGAGYNWFDSWGQGTLVTVSS
VL: B3 VL with S30R, R31N, A51V, G57A, I58F
notes: VH/VL only
For B4, the “Binding (FOI)” value in test [1] was determined as 226 FOI; in test [2], 170 FOI. Moreover, the binding result in test [3] is “no binding (tested: FOI <10 (FOI >=10 = positive); 25 nM)”.

B5: mAb 194 (antibody, V domains shown)
VH: QEQLVESGGGVVQPGGSLRLSCAASGFIFSGYGMHWVRQAPGKGLEWVAIIWYNGRKTYYAESVKGRFTISRDNSKNTLSLQMNSLRVEDTAVYYCTAGQGYNWFDPWGQGTLVTVSS
VL: B3 VL with R31S, Y91F, N93A, V104M
notes: VH/VL only
With B5, the “Binding (FOI)” value in test [1] was 217 FOI; in test [2], 199 FOI. Further, the binding result in test [3] is given as “no binding (tested: FOI <10 (FOI >=10 = positive); 25 nM)”.

B6: mAb 206 (antibody, V domains shown)
VH: QVQLVESGGGVVQPGRSLRLSCAASGFTFSGYGMHWVRQAPGKGLEWVAIIYYNGNNRKYADSVKGRFTISRDNSKNTVSLQMNSLRVEDTAIYYCTRGDGYNWFVTWGQGTLVTVSS
VL: B3 VL with R31S, Q37H, A60V
notes: VH/VL only
With B6, the entries for the “Binding (FOI)” value in test [1] and in test [2] were 198 FOI and 186 FOI, respectively. For the same molecule, the binding result in test [3] is listed as “no binding (tested: FOI <10 (FOI >=10 = positive); 25 nM)”.

B7: mAb 201 (antibody, V domains shown)
VH: B3 VH with F71S, H82Q
VL: B3 VL with R31S, N32S
notes: VH/VL only
For the molecule B7, the “Binding (FOI)” value in test [1] is 210 FOI; in test [2] it was 166 FOI. The binding result in test [3] is on record as “no binding (tested: FOI <10 (FOI >=10 = positive); 25 nM)”.

B8: mAb 205 (antibody, V domains shown)
VH: B3 VH with R16K, F71S, H82Q
VL: B3 VL with R31S, Q89K
notes: VH/VL only
As to B8, the “Binding (FOI)” value was determined as 216 FOI in test [1] and 180 FOI in test [2]. In addition, in test [3], the binding result is “no binding (tested: FOI <10 (FOI >=10 = positive); 25 nM)”.

B9: mAb 224 (antibody, V domains shown)
VH: B3 VH with F71S, T78M, H82Q, S85G, V93I
VL: B3 VL with A19T, R31N
notes: VH/VL only
On to B9, for which the “Binding (FOI)” value in test [1] stood at 212 FOI; in test [2], 181 FOI. The binding result in test [3] is listed as “no binding (tested: FOI <10 (FOI >=10 = positive); 25 nM)”.

B10: mAb 203 (antibody, V domains shown)
VH: B5 VH with E2V, I28T, S30R, W52Y
VL: B3 VL with R31S, Y91F, N93A, V104M
notes: VH/VL only
As to B10, the “Binding (FOI)” value in test [1] was determined as 285 FOI; in test [2], 201 FOI. In addition, in test [3], the binding result is “no binding (tested: FOI <10 (FOI >=10 = positive); 25 nM)”.

B11: mAb 221 (antibody, V domains shown)
VH: B5 VH with E2V, I28T
VL: B3 VL with R31S, Y91F, N93A, V104M
notes: VH/VL only
On to B11, for which the “Binding (FOI)” value in test [1] is 239 FOI; in test [2], 181 FOI. Further, in test [3], the binding result is listed as “no binding (tested: FOI <10 (FOI >=10 = positive); 25 nM)”.

B12: mAb 222 (antibody, V domains shown)
VH: B3 VH with F71S, L79V, H82Q
VL: B3 VL with E1K, R31S, Q89K
notes: VH/VL only
B12: the “Binding (FOI)” value in test [1] stood at 216 FOI; in test [2] it was 180 FOI. Moreover, in test [3], the binding result is given as “no binding (tested: FOI <10 (FOI >=10 = positive); 25 nM)”.

B13: mAb 216 (antibody, V domains shown)
VH: B3 VH with F71S, H82Q
VL: B3 VL with R31S, Q89K, N92K
notes: VH/VL only
As to B13, the “Binding (FOI)” value stood at 218 FOI in test [1] and 182 FOI in test [2]. For the same molecule, the binding result in test [3] is on record as “no binding (tested: FOI <10 (FOI >=10 = positive); 25 nM)”.

B14: mAb 204 (antibody, V domains shown)
VH: B4 VH with E2V, V23A, K28T, I51V, T97V, A100E, S107P
VL: B3 VL with R31S, A43V, E70Q
notes: VH/VL only
Regarding B14, the “Binding (FOI)” value in test [1] stood at 181 FOI; in test [2], 162 FOI. Further, the binding result in test [3] was “no binding (tested: FOI <10 (FOI >=10 = positive); 25 nM)”.

B15: mAb 209 (antibody, V domains shown)
VH: B3 VH with I70V, F71S, T78M, H82Q
VL: B3 VL with S28T, R31S, Q89K, W94R
notes: VH/VL only
Consider B15, for which the “Binding (FOI)” value was determined as 228 FOI in test [1] and 186 FOI in test [2]. Besides, in test [3], the binding result was “no binding (tested: FOI <10 (FOI >=10 = positive); 25 nM)”.

B16: mAb 196 (antibody, V domains shown)
VH: B4 VH with I70V
VL: B3 VL with S30R, R31N, A51V, G57A, I58F
notes: VH/VL only
In the case of B16, the “Binding (FOI)” value in test [1] was determined as 224 FOI; in test [2] it was 172 FOI. Also, the binding result in test [3] is given as “no binding (tested: FOI <10 (FOI >=10 = positive); 25 nM)”.

B17: mAb 193 (antibody, V domains shown)
VH: B6 VH
VL: B3 VL with R31S, Q37H, A60V, E81D
notes: VH/VL only
Regarding B17, the “Binding (FOI)” value stood at 206 FOI in test [1] and 163 FOI in test [2]. Further, the binding result in test [3] is recorded as “no binding (tested: FOI <10 (FOI >=10 = positive); 25 nM)”.

B18: mAb 226 (antibody, V domains shown)
VH: B6 VH
VL: B3 VL with V29I, R31S, Q37H, A60V, V85L
notes: VH/VL only
Consider B18, for which the “Binding (FOI)” value in test [1] came out at 199 FOI; in test [2], 176 FOI. Moreover, in test [3], the binding result was “no binding (tested: FOI <10 (FOI >=10 = positive); 25 nM)”.

B19: mAb 210 (antibody, V domains shown)
VH: B6 VH with V48L, I93M
VL: B3 VL with T20A, S30T, R31S, Q37H, A60V, I106N
notes: VH/VL only
For the molecule B19, the “Binding (FOI)” value worked out at 192 FOI in test [1] and 168 FOI in test [2]. In test [3], the binding result was “no binding (tested: FOI <10 (FOI >=10 = positive); 25 nM)”.

B20: mAb 217 (antibody, V domains shown)
VH: B3 VH with L79V, H82Q, N84K
VL: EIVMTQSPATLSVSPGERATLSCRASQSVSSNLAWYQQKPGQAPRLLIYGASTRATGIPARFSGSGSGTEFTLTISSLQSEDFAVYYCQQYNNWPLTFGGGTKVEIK
notes: VH/VL only
Turning to B20, the “Binding (FOI)” value in test [1] was found to be 214 FOI; in test [2], 173 FOI. Besides, the binding result in test [3] is given as “no binding (tested: FOI <10 (FOI >=10 = positive); 25 nM)”.

B21: mAb 215 (antibody, V domains shown)
VH: B6 VH with S25T
VL: B3 VL with R31S, Q37R, A60V
notes: VH/VL only; the VL is printed as a fragment of 18 residues only
As for B21, the “Binding (FOI)” value was 202 FOI in test [1] and 167 FOI in test [2]. In addition, the binding result in test [3] is reported as “no binding (tested: FOI <10 (FOI >=10 = positive); 25 nM)”.

B22: mAb 218 (antibody, V domains shown)
VH: B6 VH with K65R
VL: B3 VL with R31S, Q37Y, A60V
notes: VH/VL only
As for B22, the “Binding (FOI)” value in test [1] was determined as 192 FOI; in test [2] it was 179 FOI. In test [3], the binding result is “no binding (tested: FOI <10 (FOI >=10 = positive); 25 nM)”.
